For one data set, the target named is T1, Nop15 WT (1xENC) (Saccharomyces cerevisiae, UniProt P53927 40-191).
T1 sequence: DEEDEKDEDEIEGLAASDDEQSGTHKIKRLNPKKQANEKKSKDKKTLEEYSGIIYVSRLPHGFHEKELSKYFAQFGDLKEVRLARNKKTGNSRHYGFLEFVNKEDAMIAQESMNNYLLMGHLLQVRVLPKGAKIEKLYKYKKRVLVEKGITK
Put plainly: fluorescence polarization; 150 mM NaCl; Nop15 FP: 10 nM RNA/DNA, 20 mM Tris-HCl pH 7.5, 0.02% Tween 20, 150 or 50 mM NaCl; SRSF3 FP: 10 mM MES pH 5.5, 50 mM Arg/Glu, 0.1 mM TCEP, 0.02% Tween 20; incubated 37 °C 30 min then 25 °C 20 min, read at RT. The conditions noted are these: protein: recombinant, tags: N-terminal SUMO tag (pSMT3) cleaved with Ulp1, label: 5' fluorescein.

Data set [1] concerns the target T2, Nop15 no-ENC (Saccharomyces cerevisiae, UniProt P53927 =SGGSSGKSGSG+50-191, internal_change).
T2 sequence: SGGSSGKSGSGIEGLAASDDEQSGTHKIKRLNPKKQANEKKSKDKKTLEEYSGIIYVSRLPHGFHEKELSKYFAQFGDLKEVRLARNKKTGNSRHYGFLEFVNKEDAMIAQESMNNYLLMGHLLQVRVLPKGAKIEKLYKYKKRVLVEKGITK
The description is as above. The conditions noted are these: protein: recombinant, tags: N-terminal SUMO tag (pSMT3) cleaved with Ulp1, label: 5' fluorescein.

Data set [2] deals with T3, Nop15 no-linker (Saccharomyces cerevisiae, UniProt P53927 40-191, del60-76).
T3 sequence: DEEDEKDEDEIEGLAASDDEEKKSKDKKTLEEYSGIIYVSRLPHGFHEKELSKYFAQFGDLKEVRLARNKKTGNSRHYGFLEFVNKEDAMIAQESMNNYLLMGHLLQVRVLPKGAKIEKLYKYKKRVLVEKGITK
Described as above. The conditions noted are these: protein: recombinant, tags: N-terminal SUMO tag (pSMT3) cleaved with Ulp1, label: 5' fluorescein.

For data set [3], the target named is T4, Nop15 2xENC (Saccharomyces cerevisiae, UniProt P53927 39-49+39-191, internal_change).
T4 sequence: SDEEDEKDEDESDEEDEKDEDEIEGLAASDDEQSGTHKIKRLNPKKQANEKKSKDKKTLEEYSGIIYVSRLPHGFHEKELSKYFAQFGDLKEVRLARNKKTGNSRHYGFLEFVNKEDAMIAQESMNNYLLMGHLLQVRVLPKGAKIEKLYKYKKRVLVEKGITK
Described as above. The note with it: protein: recombinant; tags: N-terminal SUMO tag (pSMT3) cleaved with Ulp1; label: 5' fluorescein; hairpin with 8 bp stem and 9-nt single-stranded region.

Data set [4] deals with T2, Nop15 no-ENC. Put plainly: fluorescence polarization; 50 mM NaCl; Nop15 FP: 10 nM RNA/DNA, 20 mM Tris-HCl pH 7.5, 0.02% Tween 20, 150 or 50 mM NaCl; SRSF3 FP: 10 mM MES pH 5.5, 50 mM Arg/Glu, 0.1 mM TCEP, 0.02% Tween 20; incubated 37 °C 30 min then 25 °C 20 min, read at RT. The conditions noted are these: protein: recombinant; tags: N-terminal SUMO tag (pSMT3) cleaved with Ulp1; label: 5' fluorescein; single strand. For orientation: Polarisation of emitted light reports the rotation of a fluorescent probe.

In data set [5] the target is T4, Nop15 2xENC. The experiment in a line: fluorescence polarization; ND, too weak for detection; Nop15 FP: 10 nM RNA/DNA, 20 mM Tris-HCl pH 7.5, 0.02% Tween 20, 150 or 50 mM NaCl; SRSF3 FP: 10 mM MES pH 5.5, 50 mM Arg/Glu, 0.1 mM TCEP, 0.02% Tween 20; incubated 37 °C 30 min then 25 °C 20 min, read at RT. The note with it: protein: recombinant; tags: N-terminal SUMO tag (pSMT3) cleaved with Ulp1; label: 5' fluorescein; single strand.

In data set [6] the target is T3, Nop15 no-linker. The data set is described as above. The note with it: protein: recombinant; tags: N-terminal SUMO tag (pSMT3) cleaved with Ulp1; label: 5' fluorescein; single strand.
Where [7] appears, read: hairpin with 8 bp stem and 9-nt single-stranded region.

The term Kd denotes the equilibrium constant for the complex coming apart. Take AGAGAGAGAGUCUCUCUCUC (structured_RNA) [nonspecific stem-loop RNA]: the Kd with Nop15 WT (1xENC) (hairpin, 8 bp stem) is 945 ± 65 nM; in the data set with Nop15 no-ENC [1] (hairpin, 8 bp stem), 244 ± 18 nM; with Nop15 no-linker [2] (hairpin, 8 bp stem), 14100 ± 1400 nM.
With UGAGUGAUACUCUUUGGAGUUAACUUGAAAUUGCU (structured_RNA) [ITS2 III.A 26-60], the Kd amounted to 215 ± 34 nM with Nop15 WT (1xENC) (setting [7]), 1870 ± 270 nM with Nop15 2xENC [3], 173 ± 32 nM with Nop15 no-ENC [1] (setting [7]) and 583 ± 90 nM with Nop15 no-linker [2] (setting [7]).
On to AGAGAGAGA (ssDNA) [nonspecific ssDNA], for which the Kd in the data set with Nop15 no-ENC [4] amounted to 1160 ± 150 nM. Further, the binding result with Nop15 2xENC [5] and in the data set with Nop15 no-linker [6] was “no binding” in each case.
Regarding UUCAGAGCA (ssRNA) [nonspecific ssRNA], in the data set with Nop15 no-ENC [4], the Kd was found to be 427 ± 98 nM. Moreover, the binding result with Nop15 2xENC [5] and with Nop15 no-linker [6] was “no binding” each time.

Values taken from PMC8348266, “Intrinsically disordered electronegative clusters improve stability and binding specificity of RNA-binding proteins”.
